Test results from PMC9891525 (PLOS Pathogens, 2023).

Target: biotinylated recombinant SARS-CoV-2 wild type spike RBD (SARS-CoV-2, wild type, UniProt P0DTC2, biotin (biotinylated; detected with streptavidin-FITC))
Assay: flow cytometry on cells
Conditions: one partner purified

B1: REGN10987 scFv combinatorial variant d1 displayed on HEK 293T cells (scFv, V domains shown)
VH: QVQLVESGGGVVQPGRSLRLSCAASGFTFSNYAMYWVRQAPGKGLEWVAVISYTGSNKYYADSVKGRFTISRDNSKNTLYLQMNSLRTEDTAVYYCASGSDYGDYLLVYWGQGTLVTVSS
VL: QSALTQPASVSGSPGQSITISCTGTSSDVGGYNYVSWYQQHPGKAPKLMIYDVSKRPSGVSNRFSGSKSGNTASLTISGLQSEDEADYYCNSLTSIYTWVFGGGTKLTVL
B1: binds.

B2: REGN10987 scFv combinatorial variant d6 displayed on HEK 293T cells (scFv, V domains shown)
VH: QVQLVESGGGVVQPGRSLRLSCAASGFTFSNYAMYWVRQAPGKGLEWVAVISYIGSNKYYADSVKGRFTISRDNSKNTLYLQMNSLRTEDTAVYYCASGSDYGDYLLVYWGQGTLVTVSS
VL: QSALTQPASVSGSPGQSITISCTGTSSDVGGYNYVSWYQQHPGKAPKLMIYDVSKRPSGVSNRFSGSKSGNTASLTISGLQSEDEADYYCNSLTSIYTWVFGGGTKLTVL
B2: binds.

B3: REGN10987 scFv combinatorial variant d8 displayed on HEK 293T cells (scFv, V domains shown)
VH: QVQLVESGGGVVQPGRSLRLSCAASGFTFSNYAMYWVRQAPGKGLEWVAVISYLGSNKYYADSVKGRFTISRDNSKNTLYLQMNSLRTEDTAVYYCASGSDYGDYLLVYWGQGTLVTVSS
VL: QSALTQPASVSGSPGQSITISCTGTSSDVGGYNYVSWYQQHPGKAPKLMIYDVSKRPSGVSNRFSGSKSGNTASLTISGLQSEDEADYYCNSLTSIYTWVFGGGTKLTVL
B3: binds.

B4: REGN10987 scFv combinatorial variant A2 displayed on HEK 293T cells (scFv, V domains shown)
VH: QVQLVESGGGVVQPGRSLRLSCAASGFTFSNYAMYWVRQAPGKGLEWVAVISYDGSTKYYADSVKGRFTISRDNSKNTLYLQMNSLRTEDTAVYYCASGSDYGDYNLVYWGQGTLVTVSS
VL: QSALTQPASVSGSPGQSITISCTGTSSDVGGYNYVSWYQQHPGKAPKLMIYDVSKRPSGVSNRFSGSKSGNTASLTISGLQSEDEADYYCNSLTSISTWVFGGGTKLTVL
B4: binds.

B5: REGN10987 scFv combinatorial variant d3 displayed on HEK 293T cells (scFv, V domains shown)
VH: QVQLVESGGGVVQPGRSLRLSCAASGFTFSNYAMYWVRQAPGKGLEWVAVISYTGSHKYYADSVKGRFTISRDNSKNTLYLQMNSLRTEDTAVYYCASGSDYGDYLLVYWGQGTLVTVSS
VL: QSALTQPASVSGSPGQSITISCTGTSSDVGGYNYVSWYQQHPGKAPKLMIYDVSKRPSGVSNRFSGSKSGNTASLTISGLQSEDEADYYCNSLTSIYTWVFGGGTKLTVL
B5: binds.

B6: REGN10987 scFv combinatorial variant A1 displayed on HEK 293T cells (scFv, V domains shown)
VH: QVQLVESGGGVVQPGRSLRLSCAASGFTFSNYAMYWVRQAPGKGLEWVAVISYDGSFKYYADSVKGRFTISRDNSKNTLYLQMNSLRTEDTAVYYCASGSDYGDYNLVYWGQGTLVTVSS
VL: QSALTQPASVSGSPGQSITISCTGTSSDVGGYNYVSWYQQHPGKAPKLMIYDVSKRPSGVSNRFSGSKSGNTASLTISGLQSEDEADYYCNSLTSISTWVFGGGTKLTVL
B6: binds.

B7: REGN10987 scFv combinatorial variant d2 displayed on HEK 293T cells (scFv, V domains shown)
VH: QVQLVESGGGVVQPGRSLRLSCAASGFTFSNYAMYWVRQAPGKGLEWVAVISYDGSHKYYADSVKGRFTISRDNSKNTLYLQMNSLRTEDTAVYYCASGSDYGDYLLVYWGQGTLVTVSS
VL: QSALTQPASVSGSPGQSITISCTGTSSDVGGYNYVSWYQQHPGKAPKLMIYDVSKRPSGVSNRFSGSKSGNTASLTISGLQSEDEADYYCNSLTSIYTWVFGGGTKLTVL
B7: binds.
